Assay results as given in patent publication US20050229265.

Legend:
[1] = biological target: T1, P element transposase (delta 2-3) (UniProt Q7M3K2); test: cell_activity; details: germline remobilization in Drosophila, delta 2-3 at 99B
T1 sequence: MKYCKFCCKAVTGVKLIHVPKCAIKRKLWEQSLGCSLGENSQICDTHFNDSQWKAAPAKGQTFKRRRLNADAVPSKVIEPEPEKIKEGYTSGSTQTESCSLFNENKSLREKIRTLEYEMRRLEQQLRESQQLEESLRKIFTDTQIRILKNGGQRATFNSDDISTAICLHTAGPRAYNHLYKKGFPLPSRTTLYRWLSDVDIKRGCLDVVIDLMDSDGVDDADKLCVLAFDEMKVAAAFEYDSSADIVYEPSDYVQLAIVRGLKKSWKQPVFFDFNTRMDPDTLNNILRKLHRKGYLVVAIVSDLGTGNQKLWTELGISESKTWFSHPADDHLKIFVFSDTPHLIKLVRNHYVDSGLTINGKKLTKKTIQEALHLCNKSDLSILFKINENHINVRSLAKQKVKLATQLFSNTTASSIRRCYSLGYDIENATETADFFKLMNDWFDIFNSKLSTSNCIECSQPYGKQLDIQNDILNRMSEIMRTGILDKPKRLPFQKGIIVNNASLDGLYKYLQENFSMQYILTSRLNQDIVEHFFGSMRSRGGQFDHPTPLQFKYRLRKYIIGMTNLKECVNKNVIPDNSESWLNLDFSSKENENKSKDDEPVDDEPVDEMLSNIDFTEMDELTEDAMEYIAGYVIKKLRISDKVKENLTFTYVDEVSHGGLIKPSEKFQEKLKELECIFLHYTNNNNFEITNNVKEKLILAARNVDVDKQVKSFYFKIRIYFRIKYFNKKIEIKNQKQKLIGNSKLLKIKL

piggyBac transposase = test: cell_activity; details: germline remobilization rate in Drosophila with constitutive transposase; TTAA target; 10% with heat shock helper

Substance | activity [1] [%] | activity (piggyBac transposase) [%]
XP (P element) transposon | 50 | –
piggyBac transposon pB[w+] | – | 60
